Laboratory results as given in the supplement of paper PMC12042874.
± gives the uncertainty stated by the source.

Experiment: amyloid nucleation score (Sup35N fusion, yeast selection) (log enrichment); library NNK2; higher = more nucleation; inactive = no reads after selection
Method in brief: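 The nucleation score is the log enrichment of output over input reads, calculated with DiMSum and centred on the mode score of non-aggregating sequences. Sequences with under 100 input reads were excluded. Reads came from Illumina sequencing of plasmid inserts from psi-negative yeast expressing Sup35N fused to peptides of 20 random codons, induced 24 hours with 100 μM copper sulfate and grown 7 days at 30°C without adenine and uracil.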

| Substance | amyloid nucleation score |
| --- | --- |
| DWRFRSGISISKYLVINLGD | 5.79 ± 0.063 |
| DYIEKGFPGLPYHSCGSSTF | inactive |
| DYMDAYGYINRGDPGLIVEV | -0.013 ± 0.53 |
| DYVNGGCLKFKNWRWKFSLS | -0.349 ± 0.48 |
| DYVTVVGIILVLLLLNFNLG | inactive |
| EADELGLLVSIKCRAARRCW | 5.743 ± 0.052 |
| EAKFGKLKGYKCTVTGECSC | -0.391 ± 0.36 |
| EALMMVYGWEKTD | 0.733 ± 0.24 |
| EALYALLSGGASNLKSHRLL | 0.26 ± 0.65 |
| EAVNGWALLHIVSQ | 0.111 ± 0.33 |
| ECIYIMFKACGLRDRFSQVF | 1.84 ± 0.13 |
| ECNQCWNMGMM | -0.252 ± 0.76 |
| ECTYNKSWHQTWVTTRHGSS | 0.613 ± 0.23 |
| ECVRTLFYKLMTFAWLELRS | -1.02 ± 0.76 |
| EDFMRCRVWVSRGLVPSWGS | 0.747 ± 0.24 |
| EDFRGLIKL | inactive |
| EDFYAYFLIRRCVACAIIFL | 3.02 ± 0.15 |
| EEILHLVPINWGLYYYYTFC | inactive |
| EEYIRRQGVLTASLVYSKYI | inactive |
| EFCSYDGCYFIASMAFVDTR | -0.393 ± 1.1 |
| EFFCAHLRADLVLKKNRVVF | -1.05 ± 0.78 |
| EFMGVSR | 1.51 ± 0.52 |
| EGAVLRLALGVGTNLNQLSV | 0.098 ± 0.37 |
| EGCRMLNIYLPDFLSFLDTG | -1.16 ± 0.78 |
| EGEITFGTFPYSEFVFECST | inactive |

| Substance | amyloid nucleation score |
| --- | --- |
| EGFKYWIDKGSSGTVCVKST | 0.249 ± 0.65 |
| EGMLGIHRAGFLDGRGKLGL | inactive |
| EGMTMTHGAGQLMLGGTASV | 0.904 ± 0.44 |
| EGNNCW | 0.22 ± 0.23 |
| EGRVHTSLLVVCVTHTRKYM | -0.688 ± 0.42 |
| EGSCYIWGSMAITFNAHHDR | 5.68 ± 0.077 |
| EGSLPLGRSSCPGTLHDGMI | 0.922 ± 0.34 |
| EGTRIDLVKRRVNLWCI | -0.296 ± 0.76 |
| EHTFLFA | -0.297 ± 1.1 |
| EICRY | inactive |
| EIFIPCEWGIVIHQGHAVSQ | 4.46 ± 0.076 |
| EILYYWPVNVICRKSVKDCI | 0.434 ± 0.66 |
| EIYGFLVIICLLYGSLVSRW | -0.2 ± 0.45 |
| EKMLF | 0.528 ± 0.34 |
| EKQKWYYLELREAAQC | 0.284 ± 0.2 |
| EKVDCSVLAGNNWTWVNISL | 6.7 ± 0.079 |
| ELCGLMAEPYRSHILGCGWT | 3.67 ± 0.066 |
| ELFFCFKRLHGLMGYNDLES | 4.13 ± 0.063 |
| ELLIHDEYDILMCN | 0.136 ± 0.36 |
| ELMDNFLVSFVGKHRVTRSS | inactive |
| ELPMLGFVCNYSKHQLFIFY | 5.04 ± 0.1 |
| ELVGYNVVGAIGSQ | -0.022 ± 0.26 |
| EMSPSLMELFHACVVLVRFG | -0.051 ± 0.37 |
| EMYFALLVLFVLGGFSM | -0.409 ± 0.76 |
| ENIYRRLLVLELLVWSCRGK | 0.569 ± 0.34 |

| Substance | amyloid nucleation score |
| --- | --- |
| ENLPGWLLVKMVQYY | 0.276 ± 0.54 |
| ENNFYY | 0.953 ± 0.26 |
| EPTFWPRW | 0.626 ± 0.35 |
| ERDSSALRMAYSICHGNSVV | 0.232 ± 0.56 |
| EREVCMFRLYAKRGPAVDWL | 2.19 ± 0.21 |
| ERIFGFI | -1.45 ± 0.55 |
| ERIHSSCNYTFAFLLGFMSV | 0.053 ± 0.54 |
| ERILSFFF | inactive |
| ERNYVT | -0.525 ± 1.1 |
| ERRRYLALLQMSMCATGLCY | -0.219 ± 0.43 |
| ESHCYSGDTWLCLCLSLVTR | 8.457 ± 0.034 |
| ESRIYYVKQYSCLSTLTMVR | -0.283 ± 0.35 |
| ESSLDCMRDANNKAAWVEVV | 1.05 ± 0.23 |
| ESTAWAQVIPDNRLCGRNCR | -0.153 ± 1.1 |
| ESYTIDCRVFGLRGKGSTRA | 0.695 ± 0.46 |
| ETFVYYFNVSSLVT | 0.11 ± 0.38 |
| ETGCLRARAVATGVLGRREK | 0.171 ± 0.65 |
| ETGSRGAN | 0.263 ± 0.25 |
| ETRVITGDVSDRF | 2.55 ± 0.091 |
| EVDSVNVSLCVS | -0.796 ± 0.64 |
| EVHGCYRAWDCMMVACVNAL | 0.963 ± 0.53 |
| EVSRKTDTGQLLSDHVFFMN | -2.23 ± 0.78 |
| EWFNRSRYKCHRRHVLMAMV | 0.343 ± 0.8 |
| EWHVWVCIWGCGIEAWMLSW | 1.84 ± 0.16 |
| EWRKPGFVRGLRLNCVLRYF | -1.51 ± 0.78 |

| Substance | amyloid nucleation score |
| --- | --- |
| EYNRTLWSCYHWFVHVPPTN | -0.171 ± 1 |
| EYRGSVWLAGS | -0.379 ± 0.29 |
| EYSGLDVTDCQDT | 0.44 ± 0.36 |
| EYSYVVGMFREIVDTRTVFV | 0.107 ± 0.2 |
| EYYFSTELGGVFTLY | 1.18 ± 0.12 |
| FAPSSIDFYRGSKNGLFTAQ | -0.302 ± 0.4 |
| FARGNINLMVVFVFFDS | 5.766 ± 0.049 |
| FARLGLSSQHRRLIVC | -1.31 ± 0.54 |
| FAYSLTPFRWSRDLLMSPLG | 0.104 ± 0.28 |
| FCALWVQFRYRE | 3.89 ± 0.1 |
| FCCTLAIFSL | 7.594 ± 0.024 |
| FCILYSVFNGRLRYAFGDAS | -2.06 ± 0.62 |
| FCIVQIMDVTVLGSTSATID | 5.592 ± 0.054 |
| FCLFFLASQIIVMGVTTYTG | -0.313 ± 0.76 |
| FCPMVLAFTSRGIATKNCGV | 0.566 ± 0.74 |
| FCRDLVSGLIMTMPLCTDEM | 0.079 ± 0.5 |
| FCSCWNSEFNENSFVWRNIL | 5.35 ± 0.058 |
| FCVCARWCIVVSGLVCDLRY | -0.323 ± 0.63 |
| FCYQMSEVWIWCKFIFSI | -1 ± 1.1 |
| FDAMSSFLQYLLTHKMWVGD | 0.799 ± 0.43 |
| FDHHRGGNTLMQGDLLVMDF | 0.925 ± 0.67 |
| FDLVGDGYCNYALEYTRLNM | -1.15 ± 1.1 |
| FDLWIPGAVVEVIDMGSAAR | 0.651 ± 0.44 |
| FDNQFTLVVRGIVGTVYWCV | 7.233 ± 0.065 |
| FDPSMSFNWCICSFELDWAG | 5.321 ± 0.032 |

| Substance | amyloid nucleation score |
| --- | --- |
| FDQVWRCVASLRPIVLSCSS | 0.322 ± 0.54 |
| FDSPYPMPMSHSVNSSLIIW | -0.155 ± 0.3 |
| FDTRITMMCALWTFPAT | 7.15 ± 0.079 |
| FDVLMRSTGRANKKFLVCRQ | -0.033 ± 0.38 |
| FDYLVNIRHGCTWCRTTI | -0.108 ± 0.4 |
| FEAFLSMWIFAPECLRAHSV | -0.288 ± 1.1 |
| FEGNGCSILWLSFCRWAQ | 0.98 ± 0.4 |
| FEGSLPVPDGEEAWCAQRMS | -0.006 ± 0.45 |
| FEIDCIKIVCKASYHGLSGT | 2.99 ± 0.1 |
| FEIGGHIDCETGVCCGVAVM | 4.56 ± 0.052 |
| FEIWWLVGVVFWMVSGVNTV | -0.074 ± 0.22 |
| FFCSSRPDE | -0.286 ± 0.8 |
| FFDSLGAGRYNRIRRWLSVV | -1.33 ± 0.44 |
| FFDSSCIFITHLL | 1.77 ± 0.18 |
| FFESCRLVNFELLVLSFFIG | -0.527 ± 0.28 |
| FFNMMSK | -1.72 ± 0.62 |
| FFQQRCYVVFAIMTSSGADD | 0.864 ± 0.12 |
| FFRGSYTRAWH | 0.967 ± 0.29 |
| FFSMRVIIMFERNSSVFAVQ | 4.1 ± 0.11 |
| FFSVHEDRREKYLSNNV | -2.15 ± 1.1 |
| FFTCFTYCDCHNPVMI | 3.28 ± 0.12 |
| FFTIVMRRSILFCIFLVIDA | -1.6 ± 0.49 |
| FFVTAPIGMFSLD | -2.17 ± 0.44 |
| FGADNGSPRSE | -0.354 ± 0.76 |
| FGCPIVPVISIGFPLYGVYY | 1.1 ± 0.3 |

| Substance | amyloid nucleation score |
| --- | --- |
| FGGIFCFSLYR | 3.52 ± 0.071 |
| FGKAF | -0.375 ± 0.79 |
| FGKNLTRMSDGGTVVPLRRN | 0.255 ± 0.8 |
| FGLRIKPGEKV | 0.783 ± 0.74 |
| FGNSDLNRAMLKRAKQMRSL | inactive |
| FGRGSRLLLCAGFPLLNSYA | -0.356 ± 1.1 |
| FGSIFNSYVNEWRSLLCNID | -1.67 ± 0.39 |
| FGSVEVVRRIRSFWLFESPR | 3.58 ± 0.14 |
| FGTRHYLYSTSHHAHLGVDM | 1.83 ± 0.21 |
| FGVLYLDFCSIA | 3.93 ± 0.087 |
| FGVNS | -0.021 ± 0.63 |
| FGWAL | inactive |
| FGWLALTKR | -1.16 ± 0.34 |
| FHGPKYMSILRGELICKAPG | inactive |
| FHLLVVNFDTSLPLRQWKLE | 0.059 ± 0.3 |
| FHVIGRR | 0.951 ± 0.58 |
| FIEGVRMHLRGM | 2.86 ± 0.094 |
| FIGNF | 0.636 ± 0.19 |
| FIHRDGYSFDQVGFMGACF | 0.092 ± 1.1 |
| FIKMSNSWAYDAEFSVPLHM | 3.84 ± 0.047 |
| FIKRAHVERFSLPKTPWSVD | -1.3 ± 1 |
| FILPRLIFAGQLSCGFARGV | -1.17 ± 0.76 |
| FILRGDNLC | -1.01 ± 1 |
| FIMYFYKRTNYNFIKYHASA | 1.52 ± 0.15 |
| FINWHGMHSL | 0.89 ± 0.16 |

| Substance | amyloid nucleation score |
| --- | --- |
| FIQVSHCYAKMPYTTVTPGA | -0.191 ± 0.79 |
| FIRNYWSVYGRWSANIFDDL | 0.48 ± 0.45 |
| FIRSSIVWCC | 6.04 ± 0.077 |
| FIVMEVVEERCMSIVVESNQ | -0.804 ± 0.61 |
| FIYIVAFPIREISGLSNL | inactive |
| FIYSHYWWLWLYHTATVIPH | -1.45 ± 0.62 |
| FKAHIR | inactive |
| FKAILGG | inactive |
| FKCNIYYSFRYGSI | 7.18 ± 0.026 |
| FKFVGNSQAQVWNMCESNDS | -0.369 ± 0.64 |
| FKFVYNVKCPYWWTLSFMEV | 0.75 ± 0.47 |
| FKKTLTGCYGGGRGAMNNGK | inactive |
| FKNCDGRNIRSSHNPFNMVR | -0.857 ± 0.34 |
| FKPYF | inactive |
| FKRPDSKIVCDVNVKGALKE | inactive |
| FKSCLAGVGLFILMRFHNIA | inactive |
| FKVTTFYHGLSSMKDVASSY | -0.95 ± 0.45 |
| FLACQYNCLVDSMG | 3.26 ± 0.051 |
| FLCTNGGPLALSNGWVTSGE | 0.274 ± 0.62 |
| FLGEVCQWDRMIVARVKATR | -0.063 ± 0.29 |
